This is an account of results in publication PMC10041110.

For this experiment, the target named is Chikungunya virus nonstructural protein 1 (nsP1) capping pore (Chikungunya virus). Kind of experiment: cryo-EM structure.

The term stoichiometry N denotes the number of molecules, sites or subunits per partner or assembly.

The substance “Chikungunya virus nonstructural protein 1 (nsP1) capping pore (enzyme)” registered a stoichiometry N of 12.
